This series concerns the molecule itself. The experiment in a line: single-molecule photobleaching step counting.

A word on the stoichiometry N: it is a count of units in the complex or per binding partner.

B1: HCN1SM (human HCN1 with amino acids 636-865 deleted, N-terminal Twin-strep tag and eGFP) (complex, UniProt O60741 1-890, looked up)
chain: MEGGGKPNSSSNSRDDGNSVFPAKASATGAGPAAAEKRLGTPPGGGGAGAKEHGNSVCFKVDGGGGGGGGGGGGEEPAGGFEDAEGPRRQYGFMQRQFTSMLQPGVNKFSLRMFGSQKAVEKEQERVKTAGFWIIHPYSDFRFYWDLIMLIMMVGNLVIIPVGITFFTEQTTTPWIIFNVASDTVFLLDLIMNFRTGTVNEDSSEIILDPKVIKMNYLKSWFVVDFISSIPVDYIFLIVEKGMDSEVYKTARALRIVRFTKILSLLRLLRLSRLIRYIHQWEEIFHMTYDLASAVVRIFNLIGMMLLLCHWDGCLQFLVPLLQDFPPDCWVSLNEMVNDSWGKQYSYALFKAMSHMLCIGYGAQAPVSMSDLWITMLSMIVGATCYAMFVGHATALIQSLDSSRRQYQEKYKQVEQYMSFHKLPADMRQKIHDYYEHRYQGKIFDEENILNELNDPLREEIVNFNCRKLVATMPLFANADPNFVTAMLSKLRFEVFQPGDYIIREGAVGKKMYFIQHGVAGVITKSSKEMKLTDGSYFGEICLLTKGRRTASVRADTYCRLYSLSVDNFNEVLEEYPMMRRAFETVAIDRLDRIGKKNSILLQKFQKDLNTGVFNNQENEILKQIVKHDREMVQAALPRESSSVLNTDPDAEKPRFASNL
For the protein B1, the “stoichiometry N” value was determined as 4.

Values taken from paper PMC8513821 (Nature, 2021).
